Reference: PMC5039685 (Theranostics, 2016)

Target: GST-Src (UniProt P12931 1-536)
Experiment: pull-down

B1: (His)6-tagged EB1 (natural protein, UniProt Q15691 1-268, looked up)
chain: MAVNVYSTSVTSDNLSRHDMLAWINESLQLNLTKIEQLCSGAAYCQFMDMLFPGSIALKKVKFQAKLEHEYIQNFKILQAGFKRMGVDKIIPVDKLVKGKFQDNFEFVQWFKKFFDANYDGKDYDPVAARQGQETAVAPSLVAPALNKPKKPLTSSSAAPQRPISTQRTAAAPKAGPGVVRKNPGVGNGDDEAAELMQQVNVLKLTVEDLEKERDFYFGKLRNIELICQENEGENDPVLQRIVDILYATDEGFVIPDEGGPQEEQEEY
  binding result: binds
